Experiment: yeast display, Sf9 membrane polyspecificity reagent, FACS + sequencing; frameworks hold sequencing errors
Procedure, shortened: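 Nanobodies from a synthetic yeast display library (Saccharomyces cerevisiae BJ5465), induced 36–48 hours with galactose, were stained 1 hour at 4 °C with 10% biotinylated, detergent-solubilized Sf9 membrane reagent, enriched on streptavidin microbeads, then FACS-sorted. Anti-HA (expression) and streptavidin (reagent binding) fluorescence set low and high (top ~1%) gates. Polyreactivity labels come from the gate of origin. Genes were colony-PCR amplified, MiSeq 2 × 250 sequenced and filtered by CDR length.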

Row | Sequence | polyreactivity (PSR sort gate)
1 | QVQLVESGGGLVQAGGSLRLSCAASGSTFTLYAMGWYRQAPGTERELVAAISWSGDTTYYADSVKGRFTISRDNAKNTVYLQMNILKPEDTAVYYCAADWYNSYYYEHESWGQGTQVTVSS | high polyreactivity
2 | QVQLVESGGGLVQAGGSLRLSCAASGSTFTLYARGWYRQAPGKERELVATITGSGGSTNYADSVKGRFTISRDNAKNTVYLQMNSLKPEDTAVYYCAADYAVYSFTEFNYWGQGTQVTVSS | high polyreactivity
3 | QVQLVESGGGLVQAGGSLRLSCAASGSTFTLYVMGWYRQAPGKERELVAAISRGDTTNYADSVKGRFTISRDNAKNTVYLQMNSLKPEDTAVYYCAATYPTFFYWSKGYERDYWGQGTQVTVSS | low polyreactivity
4 | QVQLVESGGGLVQAGGSLRLSCAASGSTFTPYAMGCYRQAPAKERELVAAINGGGTRTYYADSVKGRFTISRDHAKNTVFLQMNSLKPVDTAVYYCAARTSTSRSYPYNYWGQGTQVTGSS | high polyreactivity
5 | QVQLVESGGGLVQAGGSLRLSCAASGSTFTPYAMGWYRQAPGKERELVAAISRRGGSTSYADSVKGRFTISRDNAKNTVYLQMNSLKPEDTAVYYCNKKTAASDYDYWGQGTQVTVSS | high polyreactivity
6 | QVQLVESGGGLVQAGGSLRLSCAASGSTFTPYAMGWYRQAPGKERELVAAITWRTGSTRYADSVKGRFTISRDNAKNTVYLQMNSLKPEDTAVYYCAAKVTRFGAPGVNYWGQGTKVTVSS | high polyreactivity
7 | QVQLVESGGGLVQAGGSLRLSCAASGSTFTRNAMGWYRQAPGKERELVAAITSSGGSTYYADSVKGRFTISRDNAKNTVYLQMNSLKPEDTAVYYCAAYPHRPRDRELDHWGQGTQVTVSS | low polyreactivity
8 | QVQLVESGGGLVQAGGSLRLSCAASGSTFTRYAMGWYRQAPGKEREFVAGISWRGGSTYYADSVKGRFTISRDNAKNTVYFQMNSLKPEDTAVYYCAARSFSNIGYHGYGYWGQGTQVTVSW | high polyreactivity
9 | QVQLVESGGGLVQAGGSLRLSCAASGSTFTRYGMGWYRQAPGKERELGAAITTSGSSTYYADSVKGRFTISRDNAKNTVYLQMNSLKPEDTAVYYCAADWSSWGFDYWGQGTQVTVSS | low polyreactivity
10 | QVQLVESGGGLVQAGGSLRLSCAASGSTFTSNAMGWYREAPGKEREFVAAISVGGGITYYADSVKGRFTISRDNAKNTVSLQMNSLKPEDTAVYYCAADGEYPHSEDFEYWGQGTQVNVSS | low polyreactivity
11 | QVQLVESGGGLVQAGGSLRLSCAASGSTFTSNAMGWYRQAPGKERELVAAISFSDASTYYADSVKGRFTISRDNAKNTVYLQMNSLKPEDTAVYYCAADSDQDAYDYWGQGTQVTVSS | low polyreactivity
12 | QVQLVESGGGLVQAGGSLRLSCAASGSTFTSNAMGWYRQAPGKERELVASISWSGGRTYYADSVKGRFTISRDNAKNTVYLQMNSLKPEDTAVYYCAAASYQSRYWNYYWGQGTQVTVSS | high polyreactivity
13 | QVQLVESGGGLVQAGGSLRLSCAASGSTFTSYAMGWYRQAPGKESEFVAAISWDGDNTYADSVKGRFTISRDNAKNTVYLQMNSLKPEDTAVYYCAASHQNGNFGWGYDSWGQGTQVTVSS | high polyreactivity
14 | QVQLVESGGGLVQAGGSLRLSCAASGSTFTSYAMGWYRQAPRKERELVAAINYSGGSTYYADSVKGRFTISRDNAKNTVYLQMNSLKPEDTAVYYCAADGYIRQYVTYYYWGQGTQVTVSS | low polyreactivity
15 | QVQLVESGGGLVQAGGSLRLSCAASGSTFTSYTMGWYRQAPGKERELVARITRGGGSTYYADSVKGRFTISRDNAKNTVYLQMNSLKPEDTAVYYCNAEGYLLPVGNTMDYWGQGTQVTVSS | low polyreactivity
16 | QVQLVESGGGLVQAGGSLRLSCAASGSTFTTNAMGWYRQAPGKEREFVAAITRSSGSTYYADSVKGRFTISRDNAKNTVYLQMNSLKPEDTAVYYCAAAYRQNPSQSKSRFGYWGQGTQVTVSS | high polyreactivity
17 | QVQLVESGGGLVQAGGSLRLSCAASGSTFTTNAMGWYRQAPGKERELVAAISSGGRTYYADSVKGRFTISRDNAKNTVYLQMNRLKPEDTAVYYCAAEIYYSIYQGSRFYYRGQGTQVTVSS | high polyreactivity
18 | QVQLVESGGGLVQAGGSLRLSCAASGSTFTTNVMGWYRQAPGKERELVAAISWSSGSTYYADSVKGRFTISRDNAKNTVYLQMNSLKPEDTAVYYCAAKSTYVVSKMNYWGQGTQVTVSS | high polyreactivity
19 | QVQLVESGGGLVQAGGSLRLSCAASGSTFTTYAMAWYRQAPGKERELVAAISTNGGRTFYADSVKGRFTISRDNAKNTVYLLMNSLKAEDTAVYYCAADRAGSIMNYWGQGTQVTVSS | low polyreactivity
20 | QVQLVESGGGLVQAGGSLRLSCAASGSTFTTYAMGWYRQAPGKEREFVASIRWRGGNTYYADSVKGRFTISRDNAKNTVYLQMNSLKPEDTAVYYCARRVDYISSKYGYWGQGTQVTVSS | high polyreactivity
21 | QVQLVESGGGLVQAGGSLRLSCAASGSTFTTYAMGWYRQAPGKERELVAAISTNGGRTFYADSVKGRFTISRDNAKNTVYLQMISLKPEDTAVYYCAAEYGLYAPGYYYWGQGTQVTVSS | low polyreactivity
22 | QVQLVESGGGLVQAGGSLRLSCAASGSTFTTYAMGWYRQSPGKERELVAVITDSGGTYYADSVKGRFTISRDNAKNTVYLQMNSLKPEDTAVYYCNRVFPPTDYEFDSWGQGTQVTVSS | low polyreactivity

Row | Sequence | polyreactivity (PSR sort gate)
23 | QVQLVESGGGLVQAGGSLRLSCAASGSTFTTYPMGWYRQAPGKERELVAAISTNGGRTFYADSVKGRFTISGDNAKKTVYLQMNSLKPEDTAVYYCAAEYGLYAPGYYYWGQGTQVTVSS | low polyreactivity
24 | QVQLVESGGGLVQAGGSLRLSCAASGSTFTVNAMGWYREAPGKERELVAAITTSGGSTYYADSVKGRFTISRDNAENTVYFQMNSLKPEDTAVYYCNADGPWREVERPFRKEGNYWGQGTQVTVSS | low polyreactivity
25 | QVQLVESGGGLVQAGGSLRLSCAASGSTFTVNAMGWYRQAPGKDRELVADINWIGGATYYADSVKGRFTSSRDNAKNTVYLQMNSLKPEDTALYYCNADVWEYFTYSFTGFGWYDYWGQGTQVTVSS | high polyreactivity
26 | QVQLVESGGGLVQAGGSLRLSCAASGSTFTVNAMGWYRQAPGKERELVAAISWRGGTTYYADSVKGRFTISRDNAKNTVYLQMNSLKPEDTAVYYCAATSYRRSGRYYYWGQGTQVTVSS | high polyreactivity
27 | QVQLVESGGGLVQAGGSLRLSCAASGSTFTVNAMGWYRQAPGKERELVAAISYTDSITYYADSVKGRFTISRDNAKNTVYLQMNSLKPEDTAVYYCAVDYTVYFATYSWPYLSTHEYWGQGTQVTVSS | high polyreactivity
28 | QVQLVESGGGLVQAGGSLRLSCAASGSTFTVNGMGWYRQAPGKERELVAAITWGGGSTYYADSVKGRFTISRDNAKNTVYLQMNSLKPEDTAVYYCAADDGYLFDYWGQGTQVTVSS | low polyreactivity
29 | QVQLVESGGGLVQAGGSLRLSCAASGSTFTVNGMGWYRQAPGKERELVASITWSGGSTYYADSVKGRFTISRDNAKNTVYLQMNSLKPEATAVYYCAADEKLYITGYDYWGQGTQVTVSS | low polyreactivity
30 | QVQLVESGGGLVQAGGSLRLSCAASGSTFTVNTMGWYRQAPGKERELVAAISFGGGPTYYADSVKGRFTISRDNAKNTVYLQMNSLKPEDTAVYSCAARGSLWNARKYYYWGQGTQVTVSS | high polyreactivity
31 | QVQLVESGGGLVQAGGSLRLSCAASGSTFTVNTMGWYRQAPGKERELVDAISFGGGPTYYADSVKGRFTISRDNAKNTVYLQMNSLKPDDTAVYYCAARGYLWHARKYYYWGQGTQVTVSS | high polyreactivity
32 | QVQLVESGGGLVQAGGSLRLSCAASGSTFTVYAMGWYRLAPGKERELVAAISGSGGRTYYADSVKGRFTISRDNAKNTVYLQMNSLKPEDTAVYYCIARWGYRRGYWGQGTQVTVSS | high polyreactivity
33 | QVQLVESGGGLVQAGGSLRLSCAASGSTFTVYAMGWYRQAPGKERELVAAISWGGGSTNYADSVKGRFTISRDNAKNTVYLQMNSLKPEDTAVYYCNADIDVIIGSWGDYWGQGTQVTVSS | low polyreactivity
34 | QVQLVESGGGLVQAGGSLRLSCAASGSTFTWNTMGWYRQAPGKEREMVAAISMRGANTYADSVKGRFTISLDNAKNTVYLEMNSLKPEDTAVYYCARDRLAIMDYNEYITRYEYWGQGTQVTVSS | low polyreactivity
35 | QVQLVESGGGLVQAGGSLRLSCAASGSTFTWNVMGWYRQAPAKERELVASITSGDSTYADSVKGRFTISRDNAKNTVYLQMNSLKPEDTAVYYCNVGYDQEKYGYWGQGTQVTVSS | low polyreactivity
36 | QVQLVESGGGLVQAGGSLRLSCAASGSTFTYYAMGWYRQAPGKERELVAAITGSDGRTYYADSVKGRFTISRDNAKNTVYLQMNSLKPEDTAVYYCAAYFTRYDFRWHTYYYWGQGTQVTVSS | low polyreactivity
37 | QVQLVESGGGLVQAGGSLRLSCAASGSTFTYYAMGWYRQAPGKERELVAAITSNGGSTFYADSVKGRFTISRDNAKNTVYLQMNSLKPEDTAVYYCAAYRTHGPPRAIRFDYWGQGTQVTVSS | high polyreactivity
38 | QVQLVESGGGLVQAGGSLRLSCAASGSTFTYYAMGWYRQAPGTERELVAAITGSDGRTYYADSVKGRFTISRDNAKNTVYLQMNSLKPEDTAVYYCATDVPIREIDEFGYWGQGTQVTVSS | low polyreactivity
39 | QVQLVESGGGLVQAGGSLRLSCAASGSTFTYYAMGWYRQPPGKERELVAAIDTSGTSTYYADSVKGRFTISRDNAKNTVYLQINSLKPEDTAVYYCNAYPTTYYQQYDYWGQGTQVTVSS | low polyreactivity
40 | QVQLVESGGGLVQAGGSLRLSCAASGSTFTYYAMGWYSQAPGKERELVARIRASGGSTYYADSVKGRFTISRDTAKNTDYLQMNSLKPEDTAVYYCAAQLYFLYRTYDYWGQGTQVTVSS | high polyreactivity
41 | QVQLVESGGGLVQAGGSLRLSCAASGSTFTYYSMGWDRQAPGKERELVAAISSNGGSTSYADSVKGRFTISRDNAKNTVYLQMNSLKPEDTAVYYCAAQVPLFGRYYWGQGTQVTVSS | high polyreactivity
42 | QVQLVESGGGLVQAGGSLRLSCAASGSTFVAYVMGWYRQAPGKERELVASITSGGITNYADSVKGRFTISRDNAKNTVYLQMNSLKPEDTAVKGDYWGQGTQVTVSS | low polyreactivity
43 | QVQLVESGGGLVQAGGSLRLSCAASGSTFVDNAMGWYRQAPGKEREFVAAIDWSGGSTFYADSVKGRFTISRDNAKNTVYLQMNSLKPEDTAVYYCAAYPQAYIADYDYWGQGTQVTVSS | low polyreactivity

Reference: the nanobody polyreactivity screen of Harvey et al. (2022)
